The text below walks through data of patent US20210087238A1, “CELL PENETRATING PEPTIDES AND RELATED COMPOSITIONS AND METHODS” (Phylogica Limited, priority 2017, published 2021).

This assay addresses MDM2 (UniProt Q00987). The assay is described as follows: cell-based or functional assay.
Sequence of UniProt Q00987 (Q00987 whole entry): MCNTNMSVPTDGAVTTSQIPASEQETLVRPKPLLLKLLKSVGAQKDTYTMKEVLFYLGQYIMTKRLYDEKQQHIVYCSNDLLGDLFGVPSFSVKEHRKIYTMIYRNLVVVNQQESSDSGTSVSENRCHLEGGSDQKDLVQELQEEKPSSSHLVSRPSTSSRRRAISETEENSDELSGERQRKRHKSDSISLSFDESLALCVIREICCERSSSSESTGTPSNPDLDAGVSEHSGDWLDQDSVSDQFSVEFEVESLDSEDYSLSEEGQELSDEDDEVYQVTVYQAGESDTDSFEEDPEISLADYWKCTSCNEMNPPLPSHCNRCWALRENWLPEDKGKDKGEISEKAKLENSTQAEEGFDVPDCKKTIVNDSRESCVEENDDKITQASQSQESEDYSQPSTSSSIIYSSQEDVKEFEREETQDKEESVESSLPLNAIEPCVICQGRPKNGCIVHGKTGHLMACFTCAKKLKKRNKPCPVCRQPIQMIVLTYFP

TAT_^DPMIα (peptide) registered an IC50, viability of T47D cells after 48 h (resazurin reduction) of 36.6 µM.
